In patent publication US20250313648A1 (REGENTS OF THE UNIVERSITY OF MINNESOTA, published 2025):

Columns and labels:
[1] = molecular target: T1, chondroitin sulfate proteoglycan 4 (CSPG4) (human, UniProt Q6UVK1 30-2322); assay: western blot on mock and CSPG4-CRISPR cell lysates; immunofluorescence of cells
T1 construct: whole, on cells; Endogenous full-length CSPG4 of human ovarian cancer cell lines, on the cell surface or in cell lysates for western blot; also called CSPG4 core protein
Experimental: FIGS. 1A-1D. Antibody 7H5A2 targets CSPG4. FIG. 1A) Amino acid sequence of recombinant protein target used to generate antibody 7H5A2 (SEQ ID NO:34). Black text denotes CSPG4 region (SEQ ID NO:33), the lighter gray text corresponds to human FC sequence for protein purification. […] Cells are harvested in lysis buffer and 40 μg protein was loaded in each well from the indicated mock and CSPG4-CRISPR cell lines. Alpha-tubulin is included as a loading control. FIG. 1D) Immunofluorescence staining of HEY parent cells with antibody 7H5A2. Red bar=10 μm. Magnification 600×.
Generation of novel CSPG4 antibody: CSPG4-specific mouse monoclonal antibody 7H5A2 was generated by Promab Biotechnologies Inc (Richmond, CA) by injection of a recombinant CSPG4 protein immunogen corresponding to aa 1538-2221 of the CSPG4 core protein extracellular domain, expressed and purified from a eukaryotic expression system (see FIG. 1A). The specificity of the antibody was determined by screening against CSPG4 wild type and knockout cell lysates via western blot and cell staining via immunofluorescence (see FIGS. 1B and 1C). 7H5A2 is isotype IgG1.

[2] = molecular target: T1, chondroitin sulfate proteoglycan 4 …; assay: identified by the methods of Example 6 (hybridoma raised against the CSPG4 fragment)

T1 sequence (Q6UVK1 30-2322): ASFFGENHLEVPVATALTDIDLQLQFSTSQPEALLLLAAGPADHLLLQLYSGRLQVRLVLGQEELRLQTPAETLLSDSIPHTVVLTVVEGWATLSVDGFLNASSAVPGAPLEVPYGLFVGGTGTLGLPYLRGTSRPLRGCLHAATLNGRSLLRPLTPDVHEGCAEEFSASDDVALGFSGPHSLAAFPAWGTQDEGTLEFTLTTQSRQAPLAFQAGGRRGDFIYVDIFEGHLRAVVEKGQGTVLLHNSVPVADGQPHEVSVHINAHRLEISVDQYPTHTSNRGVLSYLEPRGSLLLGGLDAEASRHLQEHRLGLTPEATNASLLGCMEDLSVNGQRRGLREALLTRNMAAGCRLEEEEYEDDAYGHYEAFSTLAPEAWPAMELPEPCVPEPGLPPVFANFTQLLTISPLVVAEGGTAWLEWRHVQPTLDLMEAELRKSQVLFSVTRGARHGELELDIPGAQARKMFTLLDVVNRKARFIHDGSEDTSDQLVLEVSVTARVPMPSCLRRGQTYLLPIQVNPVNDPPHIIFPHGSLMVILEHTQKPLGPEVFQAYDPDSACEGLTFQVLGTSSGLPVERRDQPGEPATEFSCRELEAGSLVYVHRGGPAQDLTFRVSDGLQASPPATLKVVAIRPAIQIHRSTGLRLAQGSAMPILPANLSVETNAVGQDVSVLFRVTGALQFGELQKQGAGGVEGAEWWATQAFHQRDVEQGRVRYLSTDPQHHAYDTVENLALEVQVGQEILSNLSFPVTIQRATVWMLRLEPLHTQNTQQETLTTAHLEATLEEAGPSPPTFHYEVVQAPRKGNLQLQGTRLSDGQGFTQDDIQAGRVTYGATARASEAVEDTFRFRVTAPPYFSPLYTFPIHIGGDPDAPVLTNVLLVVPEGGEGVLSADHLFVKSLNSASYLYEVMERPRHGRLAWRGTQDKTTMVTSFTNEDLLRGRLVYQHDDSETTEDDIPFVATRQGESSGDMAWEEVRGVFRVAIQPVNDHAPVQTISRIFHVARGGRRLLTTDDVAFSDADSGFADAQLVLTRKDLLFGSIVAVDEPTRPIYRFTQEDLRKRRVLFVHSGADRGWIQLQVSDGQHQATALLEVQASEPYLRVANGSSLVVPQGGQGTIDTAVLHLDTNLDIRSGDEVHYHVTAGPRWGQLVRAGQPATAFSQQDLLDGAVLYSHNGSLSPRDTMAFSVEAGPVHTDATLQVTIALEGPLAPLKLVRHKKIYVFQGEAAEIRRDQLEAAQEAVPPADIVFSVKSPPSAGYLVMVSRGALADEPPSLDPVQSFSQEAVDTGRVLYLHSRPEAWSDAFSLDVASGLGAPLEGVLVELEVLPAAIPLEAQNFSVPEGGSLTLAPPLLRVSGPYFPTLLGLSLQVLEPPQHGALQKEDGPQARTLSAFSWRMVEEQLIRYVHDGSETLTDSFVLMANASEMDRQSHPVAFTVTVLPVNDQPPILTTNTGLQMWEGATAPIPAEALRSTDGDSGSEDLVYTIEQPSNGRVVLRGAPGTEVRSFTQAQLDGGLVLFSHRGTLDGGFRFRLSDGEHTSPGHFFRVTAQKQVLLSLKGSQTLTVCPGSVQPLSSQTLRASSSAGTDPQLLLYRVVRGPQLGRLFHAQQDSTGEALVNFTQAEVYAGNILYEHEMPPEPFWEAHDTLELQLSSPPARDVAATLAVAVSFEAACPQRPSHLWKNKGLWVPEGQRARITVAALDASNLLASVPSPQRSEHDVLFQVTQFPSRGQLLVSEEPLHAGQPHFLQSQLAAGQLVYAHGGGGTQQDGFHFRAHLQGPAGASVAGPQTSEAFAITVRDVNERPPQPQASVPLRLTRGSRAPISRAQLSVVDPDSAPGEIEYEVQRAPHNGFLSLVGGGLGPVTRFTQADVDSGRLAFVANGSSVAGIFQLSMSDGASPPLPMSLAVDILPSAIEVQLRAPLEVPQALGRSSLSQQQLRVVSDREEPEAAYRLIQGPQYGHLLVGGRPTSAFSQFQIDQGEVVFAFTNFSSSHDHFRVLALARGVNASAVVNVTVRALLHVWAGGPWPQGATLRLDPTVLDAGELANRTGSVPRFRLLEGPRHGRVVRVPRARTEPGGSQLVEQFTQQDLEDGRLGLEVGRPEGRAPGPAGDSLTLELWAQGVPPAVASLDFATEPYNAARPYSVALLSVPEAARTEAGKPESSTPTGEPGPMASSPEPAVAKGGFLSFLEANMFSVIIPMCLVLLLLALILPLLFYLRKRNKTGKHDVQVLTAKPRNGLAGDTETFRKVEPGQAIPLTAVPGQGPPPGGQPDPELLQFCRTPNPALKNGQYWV

B1: CSPG4-specific mouse monoclonal antibody 7H5A2 (antibody, IgG1, V domains shown)
VH: QVQLQQSGAELVRPGSSVKISCKASGFAFSNYWMNWVKQRPGQGLEWIGQIFPGDGDTNYNGKFKGKATLTADKSSSTAYMQLISLTSEDSAVYFCVRESDWGRGTTLTVSS
VL: DIQMTQTTSSLSASLGDRVTISCSASQGINNYLNWYQQTPDGTVKLLIFYTSSLQSGVPSRFSGSGSGTDYSLTISNLEPEDIATYYCQQYSKLPFTFGSGTKLEIKR
notes: also called anti-CSPG4 antibody 7H5A2
[1]
  binding result: binds

B2: anti-CSPG4 antibody 8G5A6 (antibody, V domains shown)
VH: EVQLQQSGPDLVKPGASVKISCKASGYSFTVYYMNWVKQSHGKSLEWIGRIDPNDGGASYNQKFKGKAILTVDKSSGTAYMELRSLTSEDSAVYYCARRDYYGSKDYWGQGTTLTVSS
VL: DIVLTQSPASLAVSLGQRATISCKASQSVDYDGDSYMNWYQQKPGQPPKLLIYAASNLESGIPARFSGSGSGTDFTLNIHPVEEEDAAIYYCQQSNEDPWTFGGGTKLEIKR
[2]
  binding result: binds
